Key:
A1-A2 domains of hNrp2 = biological target: T1, A1-A2 domains of hNrp2 (human, UniProt O60462 23-270, limits assumed); experiment: ELISA on antigen-coated plate, Anti-Nrp2^B IgG titrated, anti-human HRP detection, OD450
T1 construct: domain: A1-A2; also called CUB (a1-a2) domains of human Nrp2
T1 sequence (looked up): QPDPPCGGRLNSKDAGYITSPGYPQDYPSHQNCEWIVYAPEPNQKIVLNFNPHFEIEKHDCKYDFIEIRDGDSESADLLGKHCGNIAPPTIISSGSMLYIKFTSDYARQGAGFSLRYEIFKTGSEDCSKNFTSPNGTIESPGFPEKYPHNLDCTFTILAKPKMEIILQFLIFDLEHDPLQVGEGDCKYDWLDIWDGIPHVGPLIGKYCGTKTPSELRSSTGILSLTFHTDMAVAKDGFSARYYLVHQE
Description: (§1) For ELISA-based binding specificity tests, three-fold serial dilutions of Anti-Nrp2^B IgGs (0.002 nM to 500 nM) in PBST buffer (PBT buffer with 0.5% (w/v) BSA) were incubated with 1 μg/ml antigen-coated 96-well Maxisorp plates for at least 1 hr, and the plates were washed with PBT buffer. Bound antibodies were detected with anti-human antibody HRP conjugates diluted 1:2500 in PBST buffer, developed with TMB substrate for approximately 5 minutes, quenched with 1M H₃PO₄, and read spectrophotometrically at 450 nm.

hNrp2 (b1b2) = biological target: T2, hNrp2 (b1b2) (human, UniProt O60462 275-595, limits assumed); experiment: as above
T2 construct: domain: b1b2; Expressed in insect cells; also called B1-B2 domains of hNrp2; b1-b2 domains of human Nrp2
T2 sequence (looked up): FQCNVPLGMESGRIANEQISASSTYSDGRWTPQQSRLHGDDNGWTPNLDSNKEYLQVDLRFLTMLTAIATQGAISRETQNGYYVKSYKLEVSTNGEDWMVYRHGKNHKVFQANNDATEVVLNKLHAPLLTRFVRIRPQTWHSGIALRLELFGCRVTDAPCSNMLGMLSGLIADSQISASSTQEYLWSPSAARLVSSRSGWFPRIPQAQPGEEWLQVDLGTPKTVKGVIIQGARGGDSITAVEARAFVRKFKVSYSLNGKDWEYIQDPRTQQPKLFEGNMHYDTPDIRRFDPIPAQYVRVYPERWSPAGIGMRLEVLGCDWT
Description: as §1

[1] = biological target: T3, hNrp2 (a1a2b1b2)-Fc fusion protein (human, UniProt O60462 23-595, limits assumed); experiment: as above
T3 construct: domain: a1a2b1b2; Expressed in CHO cells; The SPR text says only 'human Nrp2 (a1a2b1b2)', so it is not certain that the Fc fusion was the analyte there; also called hNrp2 ECD; human Nrp2 ECD; not shown: Fc part of the fusion
T3 sequence (looked up): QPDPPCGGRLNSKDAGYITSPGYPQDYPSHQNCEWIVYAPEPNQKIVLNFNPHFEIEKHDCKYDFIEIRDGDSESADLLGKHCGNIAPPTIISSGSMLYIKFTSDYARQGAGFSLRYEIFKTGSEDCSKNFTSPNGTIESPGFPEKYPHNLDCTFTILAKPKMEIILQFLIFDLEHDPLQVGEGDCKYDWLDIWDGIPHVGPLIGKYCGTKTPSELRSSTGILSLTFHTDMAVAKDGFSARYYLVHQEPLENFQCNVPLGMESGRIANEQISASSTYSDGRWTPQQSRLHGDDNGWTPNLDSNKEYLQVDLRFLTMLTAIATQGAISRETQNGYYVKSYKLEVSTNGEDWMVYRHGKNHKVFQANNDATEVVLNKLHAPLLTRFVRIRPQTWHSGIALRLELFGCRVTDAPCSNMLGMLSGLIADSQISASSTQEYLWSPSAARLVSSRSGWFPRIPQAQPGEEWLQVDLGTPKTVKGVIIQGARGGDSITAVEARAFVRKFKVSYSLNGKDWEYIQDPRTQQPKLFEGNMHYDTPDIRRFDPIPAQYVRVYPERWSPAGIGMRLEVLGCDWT
Description: as §1

hNrp1 ECD = biological target: T4, hNrp1 ECD (human, UniProt O14786 22-856); experiment: as above
T4 construct: extracellular domain
T4 sequence (looked up): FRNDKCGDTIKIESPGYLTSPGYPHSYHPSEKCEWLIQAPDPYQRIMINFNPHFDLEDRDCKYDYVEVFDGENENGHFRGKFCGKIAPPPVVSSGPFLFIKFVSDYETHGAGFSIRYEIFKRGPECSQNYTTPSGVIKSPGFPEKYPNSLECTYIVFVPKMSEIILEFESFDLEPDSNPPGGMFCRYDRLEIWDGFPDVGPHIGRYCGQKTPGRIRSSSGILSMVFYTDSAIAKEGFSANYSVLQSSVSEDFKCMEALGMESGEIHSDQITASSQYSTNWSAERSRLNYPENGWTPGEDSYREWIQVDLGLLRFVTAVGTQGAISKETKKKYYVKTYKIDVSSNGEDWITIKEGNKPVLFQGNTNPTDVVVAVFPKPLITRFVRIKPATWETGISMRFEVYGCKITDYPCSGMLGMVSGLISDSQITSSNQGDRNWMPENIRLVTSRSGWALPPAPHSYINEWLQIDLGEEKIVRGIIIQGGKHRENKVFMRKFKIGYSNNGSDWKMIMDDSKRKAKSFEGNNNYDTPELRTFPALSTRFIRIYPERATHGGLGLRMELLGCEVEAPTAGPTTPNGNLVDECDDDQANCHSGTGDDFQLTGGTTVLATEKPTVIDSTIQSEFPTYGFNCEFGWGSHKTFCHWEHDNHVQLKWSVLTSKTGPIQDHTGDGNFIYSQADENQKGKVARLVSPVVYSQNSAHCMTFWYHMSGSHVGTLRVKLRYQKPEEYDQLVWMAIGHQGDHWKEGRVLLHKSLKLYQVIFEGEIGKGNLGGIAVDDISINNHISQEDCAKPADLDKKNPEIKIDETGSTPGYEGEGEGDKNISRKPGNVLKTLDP
Description: as §1

mNrp2 (a1a2b1b2)-His = biological target: T5, mNrp2 (a1a2b1b2)-His (mouse, UniProt O35375 23-595, limits assumed); experiment: SPR (BIAcore-3000), human IgG1 captured on anti-human IgG CM5 chip, mouse Nrp2 (a1a2b1b2) injected 0.5-250 nM, 25 C, 1:1 Langmuir; murine Nrp2
T5 construct: domain: a1a2b1b2; Expressed in CHO cells; also called mouse Nrp2 (a1a2b1b2); murine Nrp2; not shown: His tag
T5 sequence (looked up): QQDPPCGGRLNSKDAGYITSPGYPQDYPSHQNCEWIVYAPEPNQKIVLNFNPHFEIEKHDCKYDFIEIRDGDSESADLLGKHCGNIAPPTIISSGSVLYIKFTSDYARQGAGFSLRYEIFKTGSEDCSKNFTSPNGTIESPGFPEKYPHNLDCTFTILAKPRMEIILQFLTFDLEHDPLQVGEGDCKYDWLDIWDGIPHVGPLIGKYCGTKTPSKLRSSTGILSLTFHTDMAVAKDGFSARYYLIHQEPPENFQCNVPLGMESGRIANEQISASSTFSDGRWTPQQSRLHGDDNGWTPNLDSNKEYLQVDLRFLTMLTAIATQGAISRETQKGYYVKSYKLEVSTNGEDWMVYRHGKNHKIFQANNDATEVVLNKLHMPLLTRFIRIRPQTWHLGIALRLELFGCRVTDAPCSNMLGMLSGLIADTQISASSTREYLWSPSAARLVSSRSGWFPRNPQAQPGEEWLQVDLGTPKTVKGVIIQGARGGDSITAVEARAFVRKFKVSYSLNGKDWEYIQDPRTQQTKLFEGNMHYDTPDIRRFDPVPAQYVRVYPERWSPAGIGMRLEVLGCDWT
Description: (§2) To determine binding affinities of anti-Nrp2^B IgG1 antibodies, surface plasmon resonance (SRP) measurement with a BIAcore™-3000 instrument was used. First of all, anti-Nrp2^B human IgGs were captured by CM5 biosensor chips coated rabbit anti-human IgG to achieve approximately 200 response units (RU). For kinetics measurements, two-fold serial dilutions of mouse or human Nrp2 (a1a2b1b2) (0.5 nM to 250 nM) were injected separately in PBT buffer (PBS with 0.05% (v/v) Tween 20) at 25° C. with a flow rate of 30 μl/min. Association rates (kₒₙ) and dissociation rates (koff) were calculated using a simple one-to-one Langmuir binding model (BIAcore Evaluation Software version 3.2). The equilibrium dissociation constant (KD) was calculated as the ratio koff/kₒₙ.

[2] = biological target: T3, hNrp2 (a1a2b1b2)-Fc fusion protein; experiment: blocking ELISA: plate coated with human Nrp2 ECD (5 ug/ml), antibody pre-incubated, then biotinylated human VEGFC (1 nM), streptavidin-HRP; blocked ligand VEGFC
Description: FIG. 1. Characterization of Anti-Nrp2^B mAb. (A) Schematic representation of Sema and VEGF binding regions on Nrp2 relative to Anti-Nrp2^B epitope regions. […] (C) Blocking of VEGFC binding to Nrp2 by Anti-Nrp2^B. Increasing amounts of mAb was pre-incubated with plates coated with human Nrp2 ECD (5 μg/ml) for 1-2 hrs, followed by adding pre-titrated biotinylated human VEGFC (1 nM) for 15 min. The percentage of bound VEGFC was detected by streptavidin-HRP conjugates. (D) Blocking of VEGF₁₆₅ binding to Nrp2 by Anti-Nrp2^B. (E) Blocking of Sema3F binding to LECs. LEC were incubated with conditioned media containing Sema3F fused to alkaline phosphatase (AP) (REF), in the presence or absence of Anti-Nrp2^B. AP activity derived form bound Sema3F-AP was detected colorimetrically with same development times. […] Nrp2 ECD was used as a positive control for blocking binding (right panel). Scale bar
(§3) To evaluate blocking Nrp2 from binding VEGF, three-fold serial dilutions of anti-Nrp2^B IgGs were first incubated with 96-well Maxisorp plate coated NRP2-Fc (5 μg/ml) in PBST buffer for 2 hr, following by adding biotinylated VEGF₁₆₅ or VEGFC (full length) for 15 minutes. The amount of biotinylated VEGF binding to Nrp2 was detected by streptavidin-HRP conjugates.

[3] = biological target: T3, hNrp2 (a1a2b1b2)-Fc fusion protein; experiment: SPR (BIAcore-3000), human IgG1 captured on anti-human IgG CM5 chip, human Nrp2 (a1a2b1b2) injected 0.5-250 nM, 25 C, 1:1 Langmuir; human Nrp2
Description: as §2

[4] = biological target: T3, hNrp2 (a1a2b1b2)-Fc fusion protein; experiment: competition ELISA: antibody titrated on plate-coated NRP2-Fc (5 ug/ml), competitor biotinylated VEGF165, streptavidin-HRP; blocking of VEGF165 binding
Description: as §3

B1: anti-Nrp2^B antibody YW68.4.2.36 (antibody, V domains shown)
VH: EVQLVESGGGLVQPGGSLRLSCAASGFTITSSGIHWVRQAPGKGLEWVARITPYDGSTDYADSVKGRFTISADTSKNTAYLQMNSLRAEDTAVYYCARYRGRLLFDYWGQGTLVTVSS
VL: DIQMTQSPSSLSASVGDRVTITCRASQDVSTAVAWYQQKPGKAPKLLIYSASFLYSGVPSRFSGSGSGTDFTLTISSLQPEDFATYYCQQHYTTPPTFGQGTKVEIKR
notes: Phage-derived human synthetic antibody; Human IgG1 was used in SPR and ELISA; also called Anti-Nrp2^B mAb; anti-Nrp2^B IgG1
In the case of B1, the binding result (A1-A2 domains of hNrp2) is reported as “no binding (tested: 500 nM)”, the “EC50 (read off the curve)” value (hNrp2 (b1b2)) is reported as ~0.3 nM and the “EC50 (read off the curve)” value [1] is reported as ~0.2 nM. For the same binder, the binding result (hNrp1 ECD) was “no binding (tested: 500 nM)”, the Kd (mNrp2 (a1a2b1b2)-His) was 4.9 nM and the “IC50 (read off the curve)” value [2] was ~0.1 nM. For the same binder, the Kd [3] was 5.3 nM and the IC50 [4] was 0.1 nM.

Source: patent publication US20140234312A1 (Genentech, published 2014)
